According to article PMC7710018, “Restoration of motor learning in a mouse model of Rett syndrome following long-term treatment with a novel small-molecule activator of TrkB” (Disease Models & Mechanisms, 2020):

Legend:
[1] = system: 3T3-TrkA cells; assay: NIH-3T3 cell survival (ViaLight); format: cell-based, mouse; conditions: serum-free medium, 72-96 h, PTX-BD4-3 1000 nM
Experimental: (§1) Fig. 2. PTX-BD4-3 promotes cell survival preferentially through TrkB. (A-D) Neurotrophin receptor-expressing NIH-3T3 cells were incubated in culture medium (CM) alone or in medium plus either the indicated neurotrophins (BDNF, NGF, NT-3) or PTX-BD4-3 or its parent compound LM22A-4 for 72-96 h, after which survival was measured using the ViaLight assay. […] Scale bar: 10 μm. (B) Survival dose-response curves for PTX-BD4-3 and LM22A-4 in 3T3-TrkB cells. ^§P≤0.001 compared to CM alone. (C) Representative images of 3T3-TrkA, 3T3-TrkC and 3T3-p75 cells grown in the presence of CM alone, CM+neurotrophin or CM+PTX-BD4-3. Scale bar: 10 μm. NGF, NT-3 and BDNF served as positive controls for 3T3-TrkA, 3T3-TrkC and 3T3-p75 cells, respectively. (D) PTX-BD4-3 (1000 nM) had no effect on survival of 3T3-TrkA, 3T3-TrkC or 3T3-p75 cells compared to medium alone. *P≤0.05, ***P≤0.001 compared to CM alone. For each determination in B and D, n=10-32 wells derived from four to five independent experiments. Statistical significance was determined by one-way ANOVA with Dunnett's post hoc multiple comparison test. (E,F) […] protein was extracted from human cementoblast-like cell (HCEM) cultures treated with either culture medium alone, BDNF, LM22A-4 or PTX-BD4-3, immunoprecipitated with anti-TrkB antibody and then probed sequentially on western blots with anti-Shc and anti-TrkB antibody. The ratio of Shc to TrkB in treated cultures was normalized and compared to control (CM alone) using Kruskal-Wallis ANOVA followed by Dunn's multiple comparisons test (*P≤0.05, ^§P≤0.001). n=13 independent experiments, and each protein sample was run on duplicate western blots and the normalized values averaged. RLUs, relative light units.
(§2) Mouse NIH-3T3 cells expressing TrkA (NIH-3T3-TrkA) were provided by Dr William Mobley (University of California at San Diego, San Diego, CA, USA), and NIH-3T3 cells expressing TrkB (NIH-3T3-TrkB) or TrkC (NIH-3T3-TrkC) were provided by Dr David Kaplan (University of Toronto, Toronto, ON, Canada). Cells were propagated in Dulbecco's modified Eagle medium (DMEM) supplemented with 10% fetal bovine serum (FBS; Invitrogen) and 200-400 µg/ml Geneticin. Cells were seeded into 24-well plates (30,000 cells/well) and cultured in medium consisting of 50% PBS and 50% DMEM without supplements. Following exposure to BDNF (20 ng/ml, 0.7 nM) or 10-1000 nM LM22A-4 or PTX-BD4-3 for 72-96 h, cells were suspended in 50 µl lysis buffer, transferred to white, opaque 96-well culture plates and survival was measured using the ViaLight Assay (Lonza Group, Rockland, ME, USA).

[2] = system: E16 mouse hippocampal neurons; assay: Hippocampal neuron survival (ViaLight assay and Tuj1-positive cell counts); format: cell-based; conditions: compounds 1000 nM, BDNF 20 ng/ml; vs control antibody
Description: To further confirm that PTX-BD4-3 promotes biologically relevant activity through TrkB, we examined the effect of PTX-BD4-3 on survival of cultured hippocampal neurons, using two different methods (Fig. 3A-C). […] It would be expected that although there is a correlation between survival status and mitochondrial metabolic status, one could have some degree of variability in metabolic function for a given level of cell survival. […] Because the plateau effect of PTX-BD4-3 on survival was observed between 500 nM and 1000 nM, we chose 1000 nM as a standard concentration for subsequent mechanistic studies.
Fig. 3. […] (A) Fluorescence photomicrographs (original magnification, ×40) of Tuj1-immunostained E16 mouse hippocampal neuronal cultures treated with culture medium (CM) alone, BDNF, LM22A-4 or PTX-BD4-3 for 48 h. Scale bar: 10 μm. (B) Neuron survival dose-response curves for LM22A-4 and PTX-BD4-3 were generated using the ViaLight assay; data were normalized to survival achieved with 20 ng/ml (∼0.7 nM) BDNF and compared with wells receiving culture medium medium (CM) alone. n=10-32 wells per group derived from four to five independent experiments. (C) Survival analysis of hippocampal neurons treated with either 20 ng/ml BDNF, 500 nM or 1000 nM LM22A-4 or 500 nM or 1000 nM PTX-BD4-3 for 48 h. Tuj1-positive cells counts were normalized to the survival achieved with BDNF and compared with wells treated with […]. n=32-40 wells per group derived from six independent experiments. Statistical significance in B and C was determined by one-way ANOVA with Dunnett's post hoc multiple comparison tests. *P≤0.05, ^§P≤0.001 compared to control (CM). (D) Survival of hippocampal neurons treated with CM, 20ng/ml BDNF (B), 1000 nM LM22A-4 or 1000 nM PTX-BD4-3 with or without anti-TrkB antibody (Bab) or non-immune serum (non). n=37-42 wells per group derived from five independent experiments. *P≤0.05, **P≤0.01, ***P≤0.001 (non vs Bab), Mann-Whitney test; *P≤0.05, ^ψP≤0.01, ^§P≤0.001 (compared to CM), one-way ANOVA with Dunnett's post hoc multiple comparison test.
Hippocampal neuron cultures were prepared from E16 CF1 mouse fetuses as described previously ([Yang et al., 2006]). Under the low-density conditions used here, neuronal survival is dependent, in part, on addition of exogenous neurotrophins ([Yang et al., 2008]; [Walter et al., 2011]). LM22A-4 and PTX-BD4-3 were dissolved in water at a stock concentration of 10 mM prior to dilution (1:10,000) in culture medium. Cell survival following a 48-h exposure to BDNF, LM22A-4 or PTX-BD4-3 was quantified by either counting β-tubulin III-positive cell bodies ([Massa et al., 2006]; [Walter et al., 2011]) or by the ViaLight Assay described above.

[3] = system: 3T3-TrkB cells; assay: NIH-3T3 cell survival (ViaLight); format: cell-based, mouse; conditions: serum-free medium, 72-96 h, ViaLight; compounds 10-1000 nM dose-response, BDNF 20 ng/ml
Experimental: as §1, §2

[4] = system: 3T3-p75 cells; assay: NIH-3T3 cell survival (ViaLight); format: cell-based, mouse; conditions: serum-free medium, 72-96 h, PTX-BD4-3 1000 nM
Experimental: as §1, §2

[5] = system: 3T3 parent line, which does not express Trk receptors; assay: NIH-3T3 cell survival; format: cell-based, mouse; conditions: serum-free medium
[6] = system: TrkB; assay: Shc adaptor protein recruitment to TrkB in HCEMs (IP/western blot); format: cell-based, human; conditions: 1 h, compounds 1000 nM, BDNF 0.7 nM
Description: Fig. 2. […] Scale bar: 10 μm. […] Scale bar: 10 μm.

[7] = system: 3T3-TrkC cells; assay: NIH-3T3 cell survival (ViaLight); format: cell-based, mouse; conditions: serum-free medium, 72-96 h, PTX-BD4-3 1000 nM
Experimental: as §1, §2

## NGF: neurotrophin, cognate ligand and positive control for 3T3-TrkA cells
[1]
  survival of 3T3-TrkA cells: supported survival

B1: BDNF: Recombinant brain-derived neurotrophic factor, cognate ligand of TrkB; positive control (protein, UniProt P23560 19-247, looked up)
Neurotrophic factor BDNF …: APMKEANIRGQGGLAYPGVRTHGTLESVNGPKAGSRGLTSLADTFEHVIEELLDEDQKVRPNEENNKDADLYTSRVMLSSQVPLEPPLLFLLEEYKNYLDAANMSMRVRRHSDPARRGELSVCDSISEWVTAADKKTAVDMSGGTVTVLEKVPVSKGQLKQYFYETKCNPMGYTKEGCRGIDKRHWNSQCRTTQSYVRALTMDSKKRIGWRFIRIDTSCVCTLTIKRGR
[2]
  neurotrophic activity in the presence of function-blocking anti-TrkB^ECD antibody: reduction
[3]
  survival of 3T3-TrkB cells: supported survival
[4]
  survival of 3T3-p75 cells: respond
[5]
  survival of the 3T3 parent line: did not support survival
[6]
  Shc recruitment to TrkB (ratio of Shc to TrkB): promoted Shc recruitment to TrkB

B2: NT-3: neurotrophin, cognate ligand and positive control for 3T3-TrkC cells (protein, UniProt P20783 139-257, looked up)
Neurotrophin-3: YAEHKSHRGEYSVCDSESLWVTDKSSAIDIRGHQVTVLGEIKTGNSPVKQYFYETRCKEARPVKNGCRGIDDKHWNSQCKTSQTYVRALTSENNKLVGWRWIRIDTSCVCALSRKIGRT
[7]
  survival of 3T3-TrkC cells: supported survival
